Experiments:
[1] = biological target: T1, PrfA A218G (Listeria monocytogenes, UniProt P22262 1-237, A218G); assay: SPR; details: protein: recombinant; tags: His6 removed by TEV, leaves N-terminal GA; chain copies: 2; label: 5'-biotin on strand 1; blunt
[2] = biological target: PrfA WT (Listeria monocytogenes, UniProt P22262 1-237); assay: SPR; details: protein: recombinant; tags: His6-TEV vector pET His1a; chain copies: 2; label: 5'-biotin on strand 1; blunt
[3] = biological target: T2, PrfA L140H (Listeria monocytogenes, UniProt P22262 1-237, L140H); assay: SPR; details: protein: recombinant; tags: His6 removed by TEV, leaves N-terminal GA; chain copies: 2; label: 5'-biotin on strand 1; blunt
[4] = biological target: T3, PrfA L140F (Listeria monocytogenes, UniProt P22262 1-237, L140F); assay: SPR; details: protein: recombinant; tags: His6 removed by TEV, leaves N-terminal GA; chain copies: 2; label: 5'-biotin on strand 1; blunt
[5] = biological target: T1, PrfA A218G; assay: crystal structure; PDB probably one of 6QWF/6QWH/6QWK/6QWM; assignment not in material; details: protein: recombinant; tags: His6 removed by TEV, leaves N-terminal GA; chain copies: 2; blunt
[6] = biological target: T2, PrfA L140H; assay: as above; details: protein: recombinant; tags: His6 removed by TEV, leaves N-terminal GA; chain copies: 2; blunt
[7] = biological target: T3, PrfA L140F; assay: as above; details: protein: recombinant; tags: His6 removed by TEV, leaves N-terminal GA; chain copies: 2; blunt

Binder	Kd [1] [nM]	Kd [2] [nM]	Kd [3] [nM]	Kd [4] [nM]	binding result [5]	binding result [6]	binding result [7]
hly promoter 40 bp (dsDNA) DNA 1: CTTTTATGTTGAGGCATTAACATTTGTTAACGACGATAAA DNA 2: TTTATCGTCGTTAACAAATGTTAATGCCTCAACATAAAAG	4	110	10	15			
hly PrfA box 30 bp (dsDNA) DNA 1: TTGAGGCATTAACATTTGTTAACGACGATA DNA 2: TATCGTCGTTAACAAATGTTAATGCCTCAA					binds	binds	binds
hpt promoter 40 bp (dsDNA) DNA 1: TTTTGTTTTCTGCATGATAACAAGTGTTAATGACGGAAAG DNA 2: CTTTCCGTCATTAACACTTGTTATCATGCAGAAAACAAAA	55	1040	210	270			
actA promoter 40 bp (dsDNA) DNA 1: AGTTGGGGTTAACTGATTAACAAATGTTAGAGAAAAATTA DNA 2: TAATTTTTCTCTAACATTTGTTAATCAGTTAACCCCAACT	27	690	85	95			

Reference: article PMC7221254
